What is called EC50 (read off the curve) is the concentration giving half of the maximal effect. Low values mean an effect from little substance, high ones a need for much substance.

Results on one molecule are retold here after patent publication US20230132049A1 (Genmab, published 2023).

Assay [1] has as its target T1, human CD30 (human, UniProt P28908 19-595).
T1 sequence: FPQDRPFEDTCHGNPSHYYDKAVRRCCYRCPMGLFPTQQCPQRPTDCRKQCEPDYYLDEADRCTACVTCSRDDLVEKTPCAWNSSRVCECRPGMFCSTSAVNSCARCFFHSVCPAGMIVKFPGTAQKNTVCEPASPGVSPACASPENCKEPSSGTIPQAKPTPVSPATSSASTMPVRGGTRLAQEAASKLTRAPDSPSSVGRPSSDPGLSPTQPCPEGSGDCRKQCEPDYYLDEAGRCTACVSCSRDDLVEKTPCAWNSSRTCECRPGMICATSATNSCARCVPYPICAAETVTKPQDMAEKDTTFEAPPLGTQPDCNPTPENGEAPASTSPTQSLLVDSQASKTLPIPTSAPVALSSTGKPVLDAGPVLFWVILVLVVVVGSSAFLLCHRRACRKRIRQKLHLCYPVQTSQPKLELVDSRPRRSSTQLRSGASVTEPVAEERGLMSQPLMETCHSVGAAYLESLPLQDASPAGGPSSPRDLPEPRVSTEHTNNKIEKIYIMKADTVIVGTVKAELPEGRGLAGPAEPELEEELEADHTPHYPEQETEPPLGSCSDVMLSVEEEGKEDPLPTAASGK
Description: cell-based or functional assay.

Assay [2] deals with T1, human CD30. Description: cell-based or functional assay. This is another data set of the same source.
The target in assay [3] is T1, human CD30. Description: flow cytometry on HEK293 cells transfected with human CD30. (Flow cytometry measures light scatter and fluorescence of single cells or particles in a stream.)
Assay [4] has as its target T2, complement protein C1q (human, UniProt P02745 23-245; P02746 28-253; P02747 29-245).
T2 construct: Native C1q in 20% human serum
Description: flow cytometry with FITC anti-C1q: C1q from 20% human serum on activated human CD8+ T cells incubated with the antibody. The procedure:
Activated CD8⁺ T cells were seeded in a round-bottom 96-well plate (30,000 cells/well), pelleted, and resuspended in 30 μL assay medium (RPMI-1640 with 25 mM HEPES and L-glutamine, supplemented with 0.1% [w/v] bovine serum albumin fraction V (BSA; Roche, cat. no. 10735086001) and penicillin/streptomycin).
Human serum (20 μL/well; Sanquin, lot 20L15-02), as a source of C1q, was added to a final concentration of 20%. Cells were incubated on ice for 45 min, followed by two washes with cold GMB FACS buffer and incubation with 50 μL fluorescein isothiocyanate (FITC)-conjugated rabbit anti-human C1q (final concentration of 20 μg/mL (DAKO, cat no. F0254); diluted 1:75 in GMB FACS buffer) in the presence or absence of allophycocyanin-conjugated mouse-anti-CD8 (BD Biosciences, cat. no. 555369; diluted 1:50 in GMB FACS buffer) in the dark at 4° C. for 30 min. […] C1q binding to viable cells (as identified by DAPI exclusion) was analyzed by flow cytometry on an iQue3 Screener (Intellicyt Corporation). Data were analyzed using iQue software (Intellicyt Corporation, ForeCyt® Enterprise Client Edition 6.2 [R3], Version 6.2.652).

T2 sequence (P02745 23-245 limits assumed, chain 1 of 3): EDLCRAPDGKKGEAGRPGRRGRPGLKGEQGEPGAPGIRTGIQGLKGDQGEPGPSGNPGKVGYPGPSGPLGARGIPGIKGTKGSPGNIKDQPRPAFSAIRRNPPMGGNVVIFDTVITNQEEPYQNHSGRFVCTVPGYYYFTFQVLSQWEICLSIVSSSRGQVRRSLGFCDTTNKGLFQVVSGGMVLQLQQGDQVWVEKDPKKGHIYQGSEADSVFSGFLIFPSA
T2 sequence (P02746 28-253 limits assumed, chain 2 of 3): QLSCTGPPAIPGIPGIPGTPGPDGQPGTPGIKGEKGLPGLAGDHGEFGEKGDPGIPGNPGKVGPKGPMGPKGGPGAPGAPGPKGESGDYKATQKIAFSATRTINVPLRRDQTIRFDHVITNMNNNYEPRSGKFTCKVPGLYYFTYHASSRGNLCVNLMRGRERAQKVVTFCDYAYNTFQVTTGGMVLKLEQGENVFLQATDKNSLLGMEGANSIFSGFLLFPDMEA
T2 sequence (P02747 29-245 limits assumed, chain 3 of 3): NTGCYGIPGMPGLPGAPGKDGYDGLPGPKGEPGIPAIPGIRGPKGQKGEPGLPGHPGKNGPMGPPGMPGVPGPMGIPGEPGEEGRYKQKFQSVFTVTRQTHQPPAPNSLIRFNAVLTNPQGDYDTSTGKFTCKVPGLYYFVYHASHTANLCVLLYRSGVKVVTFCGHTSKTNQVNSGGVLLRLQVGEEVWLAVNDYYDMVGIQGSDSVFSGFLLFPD

B1: bsG1-huCD3-FEAL×CD30-MDX060-FERR (bispecific antibody, human IgG1, kappa, lambda)
heavy 1: not shown
light 1: not shown
heavy 2: QVQLQQWGAGLLKPSETLSLTCAVYGGSFSAYYWSWIRQPPGKGLEWIGDINHGGGTNYNPSLKSRVTISVDTSKNQFSLKLNSVTAADTAVYYCASLTAYWGQGSLVTVSSASTKGPSVFPLAPSSKSTSGGTAALGCLVKDYFPEPVTVSWNSGALTSGVHTFPAVLQSSGLYSLSSVVTVPSSSLGTQTYICNVNHKPSNTKVDKRVEPKSCDKTHTCPPCPAPEFERGPSVFLFPPKPKDTLMISRTPEVTCVVVDVSHEDPEVKFNWYVDGVEVHNAKTKPREEQYNSTYRVVSVLTVLHQDWLNGKEYKCKVSNKALPAPIEKTISKAKGQPREPQVYTLPPSREEMTKNQVSLTCLVKGFYPSDIAVEWESNGQPENNYKTTPPVLDSDGSFFLYSRLTVDKSRWQQGNVFSCSVMHEALHNHYTQKSLSLSPG
light 2: DIQMTQSPTSLSASVGDRVTITCRASQGISSWLTWYQQKPEKAPKSLIYAASSLQSGVPSRFSGSGSGTDFTLTISSLQPEDFATYYCQQYDSYPITFGQGTRLEIKRTVAAPSVFIFPPSDEQLKSGTASVVCLLNNFYPREAKVQWKVDNALQSGNSQESVTEQDSKDSTYSLSSTLTLSKADYEKHKVYACEVTHQGLSSPVTKSFNRGEC
notes: one arm of each; also called bsG1-huCD3×CD30-MDX060
In the case of B1, in assay [1], the “cytotoxicity IC50 (µg/mL) average, Karpas-299 cells” value is 0.029 µg/mL and the “cytotoxicity maximum lysis (%) average, Karpas-299 cells” value worked out at 52.3%. In assay [2], the “Cytotoxicity, Average IC50 (µg/mL), KI-JK cells” value was found to be 0.0015 µg/mL and the “Cytotoxicity, Average IC50 (µg/mL), L-428 cells” value stood at 0.002 µg/mL. For the same molecule, the “EC50 (read off the curve)” value in assay [3] was approximately 0.09 µg/mL. In assay [4], the binding result is recorded as “no binding (tested: 30 µg/mL)”.
